Assay results from patent publication US20200317768A1 (published 2020).
Positions count from the first letter of the chain named.

T1: cynomolgus monkey FcγRIIa3 extracellular domain, His-tagged (cynomolgus monkey)
T1 construct: also called cyno FcγRIIa3; cynoFcgRIIa3; not shown: C-terminal His-tag
T1 chain: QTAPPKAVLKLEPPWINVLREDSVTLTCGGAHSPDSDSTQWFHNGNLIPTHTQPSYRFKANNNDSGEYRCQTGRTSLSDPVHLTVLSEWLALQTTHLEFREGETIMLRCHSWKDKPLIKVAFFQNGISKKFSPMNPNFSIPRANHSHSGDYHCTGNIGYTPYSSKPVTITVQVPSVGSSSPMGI

T2: human FcγRIIb extracellular domain, His-tagged (human, UniProt P31994 43-217)
T2 construct: also called FcgRIIb (human); not shown: C-terminal His-tag
T2 sequence: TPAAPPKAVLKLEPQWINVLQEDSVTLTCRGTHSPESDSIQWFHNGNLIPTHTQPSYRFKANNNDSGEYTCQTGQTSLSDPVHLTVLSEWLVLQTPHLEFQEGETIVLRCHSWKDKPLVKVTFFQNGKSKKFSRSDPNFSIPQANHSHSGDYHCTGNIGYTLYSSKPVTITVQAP

T3: human FcγRIIaH extracellular domain, His-tagged (human, UniProt P12318 34-217)
T3 construct: also called human FcγRIIa (type H); FcgRIIaH; not shown: C-terminal His-tag
T3 sequence: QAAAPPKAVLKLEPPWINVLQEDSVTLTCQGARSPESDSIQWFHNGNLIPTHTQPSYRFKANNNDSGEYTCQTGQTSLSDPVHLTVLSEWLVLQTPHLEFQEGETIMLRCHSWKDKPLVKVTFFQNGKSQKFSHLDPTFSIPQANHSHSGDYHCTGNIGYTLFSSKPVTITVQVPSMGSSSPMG

T4: cynomolgus monkey FcγRIIIaS extracellular domain, His-tagged (cynomolgus monkey, UniProt Q8SPW2 21-206 at identity 1.00))
T4 construct: also called cyno FcγRIIIaS; cynoFcγRIIIaS; not shown: C-terminal His-tag
T4 chain: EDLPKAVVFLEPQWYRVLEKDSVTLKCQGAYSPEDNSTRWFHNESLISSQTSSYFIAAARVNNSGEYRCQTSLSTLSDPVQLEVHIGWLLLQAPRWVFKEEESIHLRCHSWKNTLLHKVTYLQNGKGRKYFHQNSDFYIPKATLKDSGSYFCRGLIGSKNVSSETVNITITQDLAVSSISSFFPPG

T5: cynomolgus monkey FcγRIIa1 extracellular domain, His-tagged (cynomolgus monkey)
T5 construct: also called cyno FcγRIIa1; cynoFcgRIIa1; not shown: C-terminal His-tag
T5 chain: T1 chain with T95P, A121T, S128A, P133H, N135D

T6: cynomolgus monkey FcγRIIb extracellular domain, His-tagged (cynomolgus monkey)
T6 construct: also called cyno FcγRIIb; cynoFcγRIIb; not shown: C-terminal His-tag
T6 chain: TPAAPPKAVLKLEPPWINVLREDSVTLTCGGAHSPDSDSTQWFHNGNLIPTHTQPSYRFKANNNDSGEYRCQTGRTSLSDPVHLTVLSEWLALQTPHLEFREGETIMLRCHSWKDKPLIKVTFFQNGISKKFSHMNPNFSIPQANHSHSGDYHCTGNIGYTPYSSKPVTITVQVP

T7: human FcγRIIaR extracellular domain, His-tagged (human, UniProt P12318 34-217)
T7 construct: also called human FcγRIIa (type R); FcgRIIaR; not shown: C-terminal His-tag
T7 chain: T3 sequence with H134R

B1: M103205H795-MY464/M103202L889-SK1 (antibody, human IgG1, kappa)
heavy: QVTLKESGPVLVKPTETLTLTCTVSGIDLSHDDISWVRQAPGKGLEWVGIISYAGSTYYASWAKGRLTISKDTSKNQVVLTMTNMDPVDTATYYCARGVPAYSHGGDLWGQGTLVTVSSASTKGPSVFPLAPSSKSTSGGTAALGCLVKDYFPEPVTVSWNSGALTSGVHTFPAVLQSSGLYSLSSVVTVPSSSLGTQTYICNVNHKPSNTKVDKKVEPKSCDKTHTCPPCPIPELLTGPSVFLFPPKPKDTLMISRTPEVTCVVVDVSDEDPEVKFNWYVDGVEVHNAKTKPREEQYNSTYRVVSVLTVLHQDWLNGKEYKCKVSNKALPKPIEKTISKAKGQPREPQVYTLPPSREEMTKNQVSLTCLVKGFYPSDIAVEWESNGQPENNYKTTPPVLDSDGSFFLYSKLTVDKSRWQQGNVFSCSVMHEALHNHYTQKSLSLSP
light: DIVMTQSPATLSLSPGERATLSCTSSQSVYHANWLSWFQQKPGQPPKLLIYWASTLAYGVPSRFSGSGSGTDFTLTISSLQPEDAATYYCAGGYGGGRYAFGQGTKVEIKRTVAAPSVFIFPPSDEQLKSGTASVVCLLNNFYPREAKVQWKVDNALQSGNSQESVTEQDSKDSTYSLSSTLTLSKADYEKHKVYACEVTHQGLSSPVTKSFNRGEC
notes: copies: 2 + 2
B2: M103205H795-MY473/M103202L889-SK1 (antibody, human IgG1, kappa)
heavy: B1 heavy with I233T
light: B1 light
notes: copies: 2 + 2
B3: M103205H795-MY474/M103202L889-SK1 (antibody, human IgG1, kappa)
heavy: B1 heavy with I233V
light: B1 light
notes: copies: 2 + 2
B4: M103205H795-MY472/M103202L889-SK1 (antibody, human IgG1, kappa)
heavy: B1 heavy with I233S
light: B1 light
notes: copies: 2 + 2
B5: M103205H795-MY475/M103202L889-SK1 (antibody, human IgG1, kappa)
heavy: B1 heavy with I233W
light: B1 light
notes: copies: 2 + 2
B6: M103205H795-MY468/M103202L889-SK1 (antibody, human IgG1, kappa)
heavy: B1 heavy with I233N
light: B1 light
notes: copies: 2 + 2
B7: M103205H795-MY466/M103202L889-SK1 (antibody, human IgG1, kappa)
heavy: B1 heavy with I233L
light: B1 light
notes: copies: 2 + 2
B8: M103205H795-MY476/M103202L889-SK1 (antibody, human IgG1, kappa)
heavy: B1 heavy with I233Y
light: B1 light
notes: copies: 2 + 2
B9: M103205H795-MY467/M103202L889-SK1 (antibody, human IgG1, kappa)
heavy: B1 heavy with I233M
light: B1 light
notes: copies: 2 + 2
B10: M103205H795-MY469/M103202L889-SK1 (antibody, human IgG1, kappa)
heavy: B1 heavy with I233P
light: B1 light
notes: copies: 2 + 2
B11: M103205H795-MY471/M103202L889-SK1 (antibody, human IgG1, kappa)
heavy: B1 heavy with I233R
light: B1 light
notes: copies: 2 + 2
B12: M103205H795-MY465/M103202L889-SK1 (antibody, human IgG1, kappa)
heavy: B1 heavy with I233K
light: B1 light
notes: copies: 2 + 2
B13: M103205H795-MY470/M103202L889-SK1 (antibody, human IgG1, kappa)
heavy: B1 heavy with I233Q
light: B1 light
notes: copies: 2 + 2

Target: T1, cynomolgus monkey FcγRIIa3 …
Assay: SPR (BIACORE); KD of SG1 divided by KD of variant;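 further: relative to parent M103205H795-SG1 carrying the SG1 human heavy chain constant region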

Row | KD fold (SG1 = 1) [fold] | Binder
1 | 4.4 | B1
2 | 3.1 | B2
3 | 3.5 | B3
4 | 3.3 | B4
5 | 7.4 | B5
6 | 3.3 | B6
7 | 3.9 | B7
8 | 6.5 | B8
9 | 3.6 | B9
10 | 3.5 | B10
11 | 3.8 | B11
12 | 3.3 | B12
13 | 3.5 | B13

target: T2, human FcγRIIb extracellular domain, …; assay: SPR (BIACORE); KD of SG1 divided by KD of variant;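 further: relative to parent M103205H795-SG1 carrying the SG1 human heavy chain constant region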

Row | KD fold (SG1 = 1) [fold] | Binder
14 | 2.9 | B1
15 | 2.1 | B2
16 | 2.3 | B3
17 | 1.8 | B4
18 | 4.2 | B5
19 | 1.8 | B6
20 | 3.3 | B7
21 | 3.8 | B8
22 | 2.3 | B9
23 | 1.9 | B10
24 | 1.8 | B11
25 | 1.6 | B12
26 | 2 | B13

target: T3, human FcγRIIaH extracellular domain, …; assay: SPR (BIACORE); KD of SG1 divided by KD of variant;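 further: relative to parent M103205H795-SG1 carrying the SG1 human heavy chain constant region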

Row | KD fold (SG1 = 1) [fold] | Binder
27 | 4.1 | B1
28 | 3.1 | B2
29 | 4.1 | B3
30 | 3.8 | B4
31 | 7.7 | B5
32 | 2.5 | B6
33 | 4.1 | B7
34 | 4.9 | B8
35 | 3.8 | B9
36 | 3.5 | B10
37 | 3 | B11
38 | 2.8 | B12
39 | 3.3 | B13

Target: T4, cynomolgus monkey FcγRIIIaS …
Assay: SPR (BIACORE); KD of SG1 divided by KD of variant;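 further: relative to parent M103205H795-SG1 carrying the SG1 human heavy chain constant region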

Row | KD fold (SG1 = 1) [fold] | Binder
40 | 0.2 | B1
41 | 0.2 | B2
42 | 0.2 | B3
43 | 0.2 | B4
44 | 0.2 | B5
45 | 0.2 | B6
46 | 0.2 | B7
47 | 0.2 | B8
48 | 0.2 | B9
49 | 0.2 | B10
50 | 0.2 | B11
51 | 0.2 | B12
52 | 0.2 | B13

Target: T5, cynomolgus monkey FcγRIIa1 …
Assay: SPR (BIACORE); KD of SG1 divided by KD of variant

Row | KD fold (SG1 = 1) [fold] | Binder
53 | 1.7 | B1
54 | 2 | B2
55 | 1.6 | B3
56 | 1.5 | B4
57 | 3.2 | B5
58 | 1.1 | B6
59 | 1.7 | B7
60 | 2.3 | B8
61 | 1.7 | B9
62 | 1.5 | B10
63 | 1.2 | B11
64 | 1.6 | B12
65 | 1.5 | B13

target: T8, human FcγRIIIaV extracellular domain, His-tagged (human, UniProt P08637 17-208); assay: SPR (BIACORE); KD of SG1 divided by KD of variant
T8 construct: also called FcgRIIIaV; not shown: C-terminal His-tag
T8 sequence (P08637 17-208 F176V): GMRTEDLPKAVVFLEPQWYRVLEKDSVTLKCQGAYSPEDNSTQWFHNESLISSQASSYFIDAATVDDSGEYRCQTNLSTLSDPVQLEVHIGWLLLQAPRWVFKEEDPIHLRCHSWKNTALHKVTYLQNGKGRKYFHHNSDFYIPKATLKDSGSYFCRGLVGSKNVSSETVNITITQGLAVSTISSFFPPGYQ

Row | KD fold (SG1 = 1) [fold] | Binder
66 | 0.2 | B1
67 | 0.2 | B2
68 | 0.2 | B3
69 | 0.1 | B4
70 | 0.2 | B5
71 | 0.1 | B6
72 | 0.3 | B7
73 | 0.1 | B8
74 | 0.2 | B9
75 | 0.1 | B10
76 | 0.2 | B11
77 | 0.1 | B12
78 | 0.2 | B13

Target: T6, cynomolgus monkey FcγRIIb extracellular …
Assay: SPR (BIACORE); KD of SG1 divided by KD of variant

Row | KD fold (SG1 = 1) [fold] | Binder
79 | 3.6 | B1
80 | 3.1 | B2
81 | 3.6 | B3
82 | 2.7 | B4
83 | 8.7 | B5
84 | 2.8 | B6
85 | 3.5 | B7
86 | 4.6 | B8
87 | 2.5 | B9
88 | 3 | B10
89 | 2.6 | B11
90 | 2.6 | B12
91 | 3.3 | B13

Target: T7, human FcγRIIaR extracellular domain, …
Assay: SPR (BIACORE); KD of SG1 divided by KD of variant

Row | KD fold (SG1 = 1) [fold] | Binder
92 | 4.2 | B1
93 | 2.2 | B2
94 | 3.2 | B3
95 | 2.2 | B4
96 | 3.2 | B5
97 | 2.3 | B6
98 | 4.2 | B7
99 | 4.4 | B8
100 | 3.1 | B9
101 | 2.6 | B10
102 | 2.5 | B11
103 | 1.8 | B12
104 | 2.5 | B13
